In the MegaScale stability set (Tsuboyama et al. 2023):

B1: EEHEE_rd3_1049 (parent)
chain: TTVKLGDIKVTFDNPEKAKKYAQKLAKIYQLTVHVHGDTIHVK

Variants of: B1
Assay: folding stability dG (cDNA display proteolysis); higher = more stable
Conditions: PBS, room temperature

Variant	folding stability dG
TTVKLGDIKVTFDNPEKAKKYAQYLAKIYQLTVHVHGDTIHVK	3.04 kcal/mol
TTVKLGDIKVTFDNPEKAKKYAQKLAAIYQLTVHVHGDTIHVK	2.03 kcal/mol
TTVKLGDIKVTFDNPEKAKKYAQKLAEIYQLTVHVHGDTIHVK	2.04 kcal/mol
TTVKLGDIKVTFDNPEKAKKYAQKLAQIYQLTVHVHGDTIHVK	1.94 kcal/mol
TTVKLGDIKVTFDNPEKAKKYAQKLAMIYQLTVHVHGDTIHVK	2.01 kcal/mol
TTVKLGDIKVTFDNPEKAKKYAQKLASIYQLTVHVHGDTIHVK	1.83 kcal/mol
TTVKLGDIKVTFDNPEKAKKYAQKLAPIYQLTVHVHGDTIHVK	-0.326 kcal/mol
TTVKLGDIKVTFDNPEKAKKYAQKLAHIYQLTVHVHGDTIHVK	1.71 kcal/mol
TTVKLGDIKVTFDNPEKAKKYAQKLAIIYQLTVHVHGDTIHVK	1.79 kcal/mol
TTVKLGDIKVTFDNPEKAKKYAQKLANIYQLTVHVHGDTIHVK	1.65 kcal/mol
TTVKLGDIKVTFDNPEKAKKYAQKLAYIYQLTVHVHGDTIHVK	2.13 kcal/mol
TTVKLGDIKVTFDNPEKAKKYAQKLACIYQLTVHVHGDTIHVK	2.95 kcal/mol
TTVKLGDIKVTFDNPEKAKKYAQKLAFIYQLTVHVHGDTIHVK	2.1 kcal/mol
TTVKLGDIKVTFDNPEKAKKYAQKLADIYQLTVHVHGDTIHVK	1.79 kcal/mol
TTVKLGDIKVTFDNPEKAKKYAQKLAWIYQLTVHVHGDTIHVK	2.05 kcal/mol
TTVKLGDIKVTFDNPEKAKKYAQKLAVIYQLTVHVHGDTIHVK	1.61 kcal/mol
TTVKLGDIKVTFDNPEKAKKYAQKLAGIYQLTVHVHGDTIHVK	1.37 kcal/mol
TTVKLGDIKVTFDNPEKAKKYAQKLALIYQLTVHVHGDTIHVK	2.1 kcal/mol
TTVKLGDIKVTFDNPEKAKKYAQKLARIYQLTVHVHGDTIHVK	2.27 kcal/mol
TTVKLGDIKVTFDNPEKAKKYAQKLATIYQLTVHVHGDTIHVK	1.75 kcal/mol

Variant	folding stability dG
TTVKLGDIKVTFDNPEKAKKYAQKQAKIYQLTVHVHGDTIHVK	0.293 kcal/mol
TTVKLGDIKVTFDNPEKAKKYAQKRAKIYQLTVHVHGDTIHVK	0.324 kcal/mol
TTVKLGDIKVTFDNPEKAKKYAQKFAKIYQLTVHVHGDTIHVK	0.868 kcal/mol
TTVKLGDIKVTFDNPEKAKKYAQKGAKIYQLTVHVHGDTIHVK	-0.255 kcal/mol
TTVKLGDIKVTFDNPEKAKKYAQKDAKIYQLTVHVHGDTIHVK	-0.607 kcal/mol
TTVKLGDIKVTFDNPEKAKKYAQKWAKIYQLTVHVHGDTIHVK	1.44 kcal/mol
TTVKLGDIKVTFDNPEKAKKYAQKPAKIYQLTVHVHGDTIHVK	-0.554 kcal/mol
TTVKLGDIKVTFDNPEKAKKYAQKYAKIYQLTVHVHGDTIHVK	0.832 kcal/mol
TTVKLGDIKVTFDNPEKAKKYAQKMAKIYQLTVHVHGDTIHVK	1.55 kcal/mol
TTVKLGDIKVTFDNPEKAKKYAQKSAKIYQLTVHVHGDTIHVK	-0.33 kcal/mol
TTVKLGDIKVTFDNPEKAKKYAQKEAKIYQLTVHVHGDTIHVK	-0.772 kcal/mol
TTVKLGDIKVTFDNPEKAKKYAQKIAKIYQLTVHVHGDTIHVK	1.83 kcal/mol
TTVKLGDIKVTFDNPEKAKKYAQKAAKIYQLTVHVHGDTIHVK	0.276 kcal/mol
TTVKLGDIKVTFDNPEKAKKYAQKTAKIYQLTVHVHGDTIHVK	0.212 kcal/mol
TTVKLGDIKVTFDNPEKAKKYAQKVAKIYQLTVHVHGDTIHVK	1.26 kcal/mol
TTVKLGDIKVTFDNPEKAKKYAQKKAKIYQLTVHVHGDTIHVK	0.474 kcal/mol
TTVKLGDIKVTFDNPEKAKKYAQKCAKIYQLTVHVHGDTIHVK	2.11 kcal/mol
TTVKLGDIKVTFDNPEKAKKYAQKHAKIYQLTVHVHGDTIHVK	0.021 kcal/mol
TTVKLGDIKVTFDNPEKAKKYAQKNAKIYQLTVHVHGDTIHVK	-0.312 kcal/mol
TTVKLGDIKVTFDNPEKAKKYAQKLAKAYQLTVHVHGDTIHVK	1.65 kcal/mol

Variant	folding stability dG
TTVKLGDIKVTFDNPEKAKKYAQKLKKIYQLTVHVHGDTIHVK	1.02 kcal/mol
TTVKLGDIKVTFDNPEKAKKYAQKLQKIYQLTVHVHGDTIHVK	0.896 kcal/mol
TTVKLGDIKVTFDNPEKAKKYAQKLTKIYQLTVHVHGDTIHVK	0.662 kcal/mol
TTVKLGDIKVTFDNPEKAKKYAQKLHKIYQLTVHVHGDTIHVK	0.547 kcal/mol
TTVKLGDIKVTFDNPEKAKKYAQKLFKIYQLTVHVHGDTIHVK	1.11 kcal/mol
TTVKLGDIKVTFDNPEKAKKYAQKLVKIYQLTVHVHGDTIHVK	0.862 kcal/mol
TTVKLGDIKVTFDNPEKAKKYAQKLCKIYQLTVHVHGDTIHVK	2.77 kcal/mol
TTVKLGDIKVTFDNPEKAKKYAQKLPKIYQLTVHVHGDTIHVK	-0.282 kcal/mol
TTVKLGDIKVTFDNPEKAKKYAQKLNKIYQLTVHVHGDTIHVK	0.427 kcal/mol
TTVKLGDIKVTFDNPEKAKKYAQKLEKIYQLTVHVHGDTIHVK	0.645 kcal/mol
TTVKLGDIKVTFDNPEKAKKYAQKLWKIYQLTVHVHGDTIHVK	1.2 kcal/mol
TTVKLGDIKVTFDNPEKAKKYAQKLGKIYQLTVHVHGDTIHVK	0.898 kcal/mol
TTVKLGDIKVTFDNPEKAKKYAQKLYKIYQLTVHVHGDTIHVK	1.01 kcal/mol
TTVKLGDIKVTFDNPEKAKKYAQKLLKIYQLTVHVHGDTIHVK	1.16 kcal/mol
TTVKLGDIKVTFDNPEKAKKYAQKLSKIYQLTVHVHGDTIHVK	1.23 kcal/mol
TTVKLGDIKVTFDNPEKAKKYAQKLDKIYQLTVHVHGDTIHVK	0.078 kcal/mol
TTVKLGDIKVTFDNPEKAKKYAQKLRKIYQLTVHVHGDTIHVK	1.37 kcal/mol
TTVKLGDIKVTFDNPEKAKKYAQKLIKIYQLTVHVHGDTIHVK	1.09 kcal/mol
TTVKLGDIKVTFDNPEKAKKYAQKLMKIYQLTVHVHGDTIHVK	1.23 kcal/mol
